From the RNAGym collection of RNA variant scans (doi:10.7554/elife.90254)

B1: LINE1-full (parent)
chain: UACGUAGGUGGUUUUCCCCUGAUAGUGCUAAGGGGGCCUGGAAGUUUGGACUGGGCAGAGCUCAACACAGCGUGGCAAAGUGGCUGUGGCUAGACUGCCUCUCUGGAUUCCUCGUCACUCAGCAGGGCAUCUCUGAGAGAAAUGCC

Variants of: B1
Test: self-cleavage, relative activity (ratio to wild type); higher = more cleavage; in vitro, sequencing; the parent is a self-cleaving ribozyme

| Variant | self-cleavage |
| --- | --- |
| U85A U109G | 0.05 |
| U46C U87A | 0.13 |
| U39A A50G | 1.29 |
| G32A U104A | 1.17 |
| A50G G80U | 0.35 |
| U85A U87G | 0.07 |
| U96C U119G | 0.13 |
| G4U G80C | 1.07 |
| U39A A121U | 1.58 |
| U108C A121U | 2.15 |
| U9A A57U | 0.19 |
| U20C U130C | 1.77 |
| C17U A59U | 0.51 |
| U112G | 1.28 |
| C71U U81C | 0.74 |
| U47A U85G | 0.17 |
| U9C U14G | 2.09 |
| U29C A140G | 1.2 |
| C18U U87A | 0.08 |
| A57U A59G | 0.05 |
| A30U A94G | 0.55 |
| A50C A121G | 2.3 |
| U100C A140U | 1.82 |
| U15C G32A | 0.93 |

| Variant | self-cleavage |
| --- | --- |
| A79U U100C | 2.92 |
| G49A A117G | 1.24 |
| C3A A94G | 0.3 |
| A50G A65G | 0.14 |
| U12C A121G | 1.74 |
| U108A U130A | 0.38 |
| U14A A78G | 0.34 |
| U13C C51U | 0.97 |
| G36A C113U | 1.02 |
| A107U C146U | 1.21 |
| U47C A77G | 2.3 |
| U85G G144A | 0.21 |
| U45A U73A | 1.91 |
| U45A U73C | 1.32 |
| U73A U85A | 0.05 |
| U73C C111U | 2.14 |
| U46C A142G | 1.35 |
| U109A U143A | 1.75 |
| A22G U26C | 0.83 |
| U47A A141G | 1.37 |
| U45G G49A | 1.25 |
| U1A A129G | 1.47 |
| A65G U100A | 0.09 |
| U12A A69G | 0.42 |

| Variant | self-cleavage |
| --- | --- |
| A43G A124C | 1.96 |
| A42G A50G | 0.91 |
| U73C A77U | 1.31 |
| A22G C76G | 2.86 |
| A31G U112C | 1.3 |
| G8A C38U | 1.41 |
| C90U U108A | 0.05 |
| U62A A141U | 0.01 |
| U1C A141U | 0.71 |
| U112G C116A | 1.57 |
| A117C A124G | 1.7 |
| G48A A136G | 1.62 |
| U13C U46G | 1.31 |
| U26G C111U | 0.63 |
| G32A A141G | 1.95 |
| A64G G80A | 0.39 |
| U87C C113U | 0 |
| A79U C111G | 2.75 |
| U62G A69U | 0.05 |
| G105U U143A | 1.34 |
| U5G U119C | 1.02 |
| U96C A129G | 0.11 |
| U13C G105A | 1.33 |
| A42G C145U | 1.26 |

| Variant | self-cleavage |
| --- | --- |
| G48A U143A | 1.64 |
| G33C | 1.17 |
| A57G C99A | 0.2 |
| U5A A65U | 0.26 |
| C131U U134A | 1.65 |
| U1C U143A | 1.35 |
| G72A C84U | 0.19 |
| U39C A42G | 1.44 |
| U1A A69G | 1.2 |
| U1C G48A | 0.9 |
| A138G G144A | 0.14 |
| A22G U46A | 0.95 |
| A42C C95U | 0.04 |
| U1C U96A | 0.09 |
| U1C U52G | 1.33 |
| G33U U87C | 0.09 |
| G54A U87A | 0.06 |
| A78G A107G | 1.26 |
| G21U G35A | 1.36 |
| C16U U104A | 1.12 |
| A65U U91G | 0.06 |
| U23G U102C | 1.02 |
| G49U G70A | 0.04 |
| C63G U130C | 0.34 |

| Variant | self-cleavage |
| --- | --- |
| G83A A107G | 0.91 |
| G106U A138G | 0.99 |
| U108A A117G | 1.97 |
| U14C G88A | 0.09 |
| U73G A77U | 1.14 |
| U91G A140G | 0.02 |
| U26C U109C | 1.74 |
| U9A G55C | 0.09 |
| A22G A57G | 0.67 |
| G80C U132C | 1.84 |
| U52A U115C | 1.42 |
| G40U U47A | 1.86 |
| U5C A6U | 1.09 |
| G41A C68U | 0.23 |
| A79G C98U | 0.45 |
| U12C C111U | 1.74 |
| G41A C95U | 0.12 |
| G10A A43G | 0.83 |
| U5C C37U | 1.02 |
| U81C A94C | 0 |
| U52C U130A | 1.04 |
| C28U C84U | 0.25 |
| U85A U130A | 0.1 |
| G4A G10A | 1.21 |

| Variant | self-cleavage |
| --- | --- |
| U29A A69U | 0.07 |
| U12A G32C | 0.8 |
| A121C U134A | 0.84 |
| U91C A129G | 0.47 |
| U5A A67U | 0.14 |
| G41U U132A | 1.35 |
| G72A G135U | 1.2 |
| U130G | 1.32 |
| A67U A117U | 0.1 |
| U47C C128U | 1.42 |
| U23C A50G | 1.34 |
| U62C C99A | 0.03 |
| U14C U73A | 1.31 |
| C38U U52C | 1.44 |
| A42G C84A | 0.15 |
| A22U A136G | 1.13 |
| G49C A138G | 1.59 |
| G75C A142U | 0.66 |
| U39G U73A | 1.88 |
| G33A A59G | 0.12 |
| U5C U46A | 1.29 |
| A129G A140G | 1.47 |
| U45C G53A | 1.64 |
| G97A U100A | 0.1 |

| Variant | self-cleavage |
| --- | --- |
| G4A G34A | 0.66 |
| A30G U73G | 0.81 |
| U112A U119C | 2.45 |
| U29A U81A | 1.96 |
| U12G U115G | 0 |
| U52A A92U | 0.86 |
| U9G U132A | 0.59 |
| G32U U45A | 1.17 |
| A6U A64C | 0.68 |
| A31U U96A | 0.07 |
| A69G A142G | 0.5 |
| U52A C128U | 1.38 |
| A77C C128U | 1.67 |
| U23A C120A | 0.82 |
| A42G A124U | 1.35 |
| G7C U143C | 1.93 |
| A22G U130C | 1.3 |
| U47C A121C | 1.05 |
| U15C G82A | 1.92 |
| G4A C19U | 0.59 |
| U9A A22U | 0.89 |
| U52C U81G | 1.31 |
| A77G G139A | 1.52 |
